Assay results: the RNAGym collection of RNA variant scans (doi:10.1073/pnas.2313332121)

B1: TPR t1 (parent)
chain: GACCAAUCUGCCCUCAGAGCUCGAGAACAUCUUCGGAUGCAGAGGAGGCAGGCUUCGGUGGCGCGAUAGCGCCAACGUCCUCAACCUCCAAUGCAUCCCACCACAUGAUGAUGCCUGAAGAGCCUUGGUUUUUUG

Variants of: B1
Assay: polymerase ribozyme fitness, log enrichment relative to wild type (log ratio); higher = more active; in vitro selection for triplet polymerase activity
Summary of the method: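 After PCR construction and transcription, each subunit's mutant library from a heterodimeric triplet polymerase ribozyme was annealed with a biotinylated primer, the partner subunit and triplets. Incubation was frozen, at −7 °C, and extended constructs were gel-excised, bound to streptavidin beads and amplified by RT-PCR, in one selection round done in triplicate. Fitness is the logarithm of a genotype's enrichment divided by that of the wild type, from inverse-variance-weighted replicate averages of Illumina-sequenced inputs and outputs. The base of the logarithm is 2, and genotypes needed ≥10 input reads and ≥1 read per output.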

Variant | polymerase ribozyme fitness (log ratio)
GACCAAUCUGCCCUCAGAGCUCGAGAACAUCUUCGGAUGCAGAGGAGGCAGGCUUCGGUUGCGCGAUAGCGCCAACGUCCUCAACCUCCAAUGCAUCCCACCACAUGAUGAUGCCUGAAGAGCCUUGGUUUUUUC | 0.0909
GACCAAUCUGCCCUCAGAGCUCGAGAACAUCUUCGGAUGCAGAGGAGUCAGGCUUCGGUGGCGCGAUAGCGGCAACGUCCUCAACCUCCAAUGCAUCCCACCACAUGAUGAUGCCUGAAGAACCUUGGUUUUUUG | -2.3
GACCAUUCUGCCCUCAGACCUCGAGAACAUCUUCGGAUGCAGAGGAGGCAGGCUUCGGUGGCGCGAUAGCGCCAACGUCCUUAACCUCCAAUGAAUCCCACCACAUGAUGCUGCCUGAAGAGCCUUGGUUUUUUG | -4.5
GACCAAUCUGCACUCAGAGCUCGAGAACAUCUUCGGAUGCAGAGGAGGCAGGCUUCGGUGGCGCGAUAGCGACAACGUCCUCAACCUCCAAUGCAUCCAACCACAUGAUGAUGCCUGAAUAGCCUUGUUUUUUUG | -7.62
GACCAAUCUGCCCUCAGAGCUCGAGAACAUCUUCGGAUGCAGAGGAGUCAGGCUUCGGUGGCGCGAUAGCGCCAACGUCCUCAACCUCCAAUGCAUCCCACCACAUGAUGUUGCCUGAAGAGCCGUGGUUUUUUG | -4.47
GACCAAUCUGCCUUCAGAGCUCGAGAACAUCUUCGGAUGCAGAGGAGGCAGGCUUCGGUGGCGCGAUAGCGCCAACGUCCUCAACCUCAAAUGCAUCCCACCACAUGAUGAUGCCUGAAGAGCCUUGGUUUUUUG | -1.08
GACCAAUCUGCCCUCAGAGCUCGAGAACAUCUUUGGAUGCAGAGGAGGCAGGGUUCGGUGGCGCGUUAGCGCCAACGUCCUCAACCUCCAAUGCAUCCCACCACAUGAUGAUGCCUGAAGAGCAUUGGUUUUUUG | -6.48
GACCAACCUGCCCUCAGAGCUCGAGAACAUCUUCGGAUGCAGAGGAGGCAGGCUUCAGUGGCGCGAUAGCGCCAACGUCCUCAACCUCCAAUGCAUCCCACCACAUGAUGAUGCCUGAAGAGCCUUGGUUUUUUG | -0.108
GACCAAUCUGCCCUCAGAGCUCGAGAACAUCUUCGGAUGCAGAGGAGGUAGGCUUCGGUGGUGCGAUAGCGCCAACGUCCUCAACCUCCAAUGCAUCCCACCACAUGAUGAUGGCUCAAGAGCCCUGGCUUUUUG | -7.74
GACCAAUCUGCCCUCAGAGCUCGAGAACAUCUUAGGAUGAAGAGGAGGGAGGCUUCGGUGGCGCGAUAGCGCCAACAUCCUCAACCUCCAAUGCAUCCCACCACAUGAUGAAGCGUGAAGAGCCUUGGUUUUUUG | -7.22
GAUCAAUCUGCCCUCAGAGCUCGAGAACAUCUUCGGAUCCAGAAGAGGCAGGCUUCGGUGGCACGAUAGCGCCAACUACCUCAACCUCCAAUGCAUCCCACCACAUGAUGAUGCCUGAGGAGCCUUGGUUUUUUG | -2.88
GACCAAUCUGCCCUUCGAGCUCGAGAACAUCUUCGGAUGCAGAGGAGGCAGGCUUCGGUGGCGCGAUAGCGCCAACGUCCUCAACCUCCAAUGCAUCCCACCACAUGAUGAUGCCUGAAGAGCCUUGGUUUUUUG | -2.44
GACCAAUCUGCCCUCAGAGCUCGAGAAGAUCUUCGGAUGCAGAGGAGGCAGGCUUCGGUGGCGCGAUAGCGCCAACGCCCUCAACCUCCAAUGCAUCCCACCACAUGAUGAUGCCUGAAGAGCCUUGGUUUUUUG | -2.53
GACCAAUCUGCCCUCAGAGCUCGAGAACAUCUUCGGAUGCAGAGGAGGCAGGUUUCGGUGGCGCGAUAGCGCCAACGUCUCCAACCUCCAAUGCAUCCCACCACAUGAUGAUGCCUGAAAAGCCUUGGUUUUUUG | -3.73
GACCAAUCUGCCCUCAGAGCUCGAGAACAUCUUCGGAUGCAGAGGGGGCAGGCUUCGGUGGCGCGAUAGCGCCAACGUCCUCAACCUCCAAUGCAUCCCACCACAUGAUGAUGCCUCAAGAGCCUUGGUUUUUUG | -3.96
GGCCAAUCUGCCCUCAGAGCUCGAGAACAUCUUCGGAUGCAGGGGAGGCAGGCUUCGGUGGCGCGAUAGCGCCAACGUCCUCAACCUCCAAUGCAUCCCACCACAUGAUGAUGCCUGAAGAGCCUUGGUUUUUUG | -2.05
GACCAAUCUGCCCUCAGAGCUCGAGAACAUCUUCGGAUGCAGUGGAGGCAGGCUUCGGUGGCGCGAUAGCUCCAACGUCCUCAACCUCCAAUGCAUCCCACCACAUGAUGAUGCCUGAAGAGCCUUGGUUUUUUG | -1.89
GACCAAUCUGCCCUCAGAGCACGAGAACAUCUUCGGAUGCAGUGGAGGCAGGCUUCGGUGGCGCGAUAGCGCUAACGUCCUCAACCUCCGAUGCAUCCCACCACAUGAUGAUGCCUGAAGAGCCUUGGUUUUUUG | -2.19
GACCAAUCUGCCCUCAGAGCUCGAGAACAUCUUCGGAUGCAGCGGAGGCAGGCUUCGGUGGCGCGAUAGCGCCAACGUCCUCAACCUCCAAUGCAUCCCACCACAUGAUGAUACCUGAAGAGCCUUGGUUUUUUG | -2.91
GACCAAUCUGCCCUCAGAGCUCGAGAACAUCUUCGGAUGCAGAGGAGGCAGGCUUCGGUGGCGCGAUAGAGCCAACGUCCUCAACCUCGAAUGCAUCCCACCACAUGAUGAUGCCUGAAGAGCCAUGGUUUUUUG | -4.36
GACCAUUCUGCCCUCAGAGCUCGAGUACAUCUUCGGAUGCAGAGGAGGCAGGCUUCGGUGGCGCGAUAGAGCCAACGUCCUCAACCUCCAAUGCAUCCCACCACAUGAUGAUGCCUGAAUAGCCUUGGUUUUUUG | -5.12
